Our source for the Kd values is publication PMC9324194.

For this series, the target named is Cy3-APE1 (human) (UniProt P27695). The experiment in a line: FRET titration. To be noted: N1 = tetrahydrofuran (THF), EMSA: 2 uM protein and DNA, 20 mM potassium phosphate pH 7.0, 50 mM NaCl, 5 mM MgCl2, 2 mM DTT, 0.01% Tween-20, 30 min room temperature, gel at 4 °C. A general note: A gel shift assay detects complexes by their altered migration in electrophoresis.

For orientation: Kd means the constant that tells how readily two partners part at equilibrium. Low readings indicate higher affinity, high ones lower affinity.

UniProt P27695, sequence (P27695 whole entry): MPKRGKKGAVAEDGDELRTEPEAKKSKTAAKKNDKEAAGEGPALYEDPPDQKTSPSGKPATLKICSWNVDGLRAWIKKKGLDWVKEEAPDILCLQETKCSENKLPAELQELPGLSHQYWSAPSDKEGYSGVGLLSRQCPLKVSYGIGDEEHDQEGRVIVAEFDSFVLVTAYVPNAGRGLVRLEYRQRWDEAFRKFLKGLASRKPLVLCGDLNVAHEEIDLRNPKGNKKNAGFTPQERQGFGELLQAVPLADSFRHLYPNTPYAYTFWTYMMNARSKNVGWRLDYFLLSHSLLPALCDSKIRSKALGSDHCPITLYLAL

“NCGGTCGATCGTAAGATCGACCGTGCGCTGGAGCTTGCTCCAGCGC [Cy5-P (Cy5-labelled product)]” came in with a Kd of 5 nM.
